Here are results for one molecule from patent US20030083294, “Modulators of pharmacological agents” (published 2003).

In this series the target is coagulation factor IXa (FIXa) (Homo sapiens, UniProt P00740;P00740 P00740:47-191,P00740:227-461). The series is described as follows: KD comparable to 9.3t.

Regarding AUGGGGACUAUACCGGCAAUCGUGCAUCCCCAU (ssRNA, 2'-F pyrimidines, 2'-OH purines) [9.20t], the binding result is “binds”.
